Earlier results in PMC10919381.
Read-outs that look alike come from different tables or passages of the source.

How the values were obtained:
[1] = target: CBP/p300 TAZ1 (Homo sapiens) (UniProt Q92793)
[2] = target: CBP/p300 TAZ1 (Homo sapiens) (UniProt Q92793); remark: listed apart in the source

Sequence of UniProt Q92793 (Q92793 347-433): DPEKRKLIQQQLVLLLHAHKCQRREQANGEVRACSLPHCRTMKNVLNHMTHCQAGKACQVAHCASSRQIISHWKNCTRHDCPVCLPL

| Substance | Kd [1] [nM] | Kd [2] [nM] |
| --- | --- | --- |
| CITED2 (from UniProt Q99967) | 10 |  |
| HIF-1α (from UniProt Q16665) |  | 10 |
